The assay concerns the target MITF-M expressed in HEK293 cells from the pCI mammalian expression vector (human) (UniProt O75030). The assay is described as follows: cell-based or functional assay.
UniProt O75030, sequence (O75030 other isoform, or with tags, fused parts or gaps limits assumed): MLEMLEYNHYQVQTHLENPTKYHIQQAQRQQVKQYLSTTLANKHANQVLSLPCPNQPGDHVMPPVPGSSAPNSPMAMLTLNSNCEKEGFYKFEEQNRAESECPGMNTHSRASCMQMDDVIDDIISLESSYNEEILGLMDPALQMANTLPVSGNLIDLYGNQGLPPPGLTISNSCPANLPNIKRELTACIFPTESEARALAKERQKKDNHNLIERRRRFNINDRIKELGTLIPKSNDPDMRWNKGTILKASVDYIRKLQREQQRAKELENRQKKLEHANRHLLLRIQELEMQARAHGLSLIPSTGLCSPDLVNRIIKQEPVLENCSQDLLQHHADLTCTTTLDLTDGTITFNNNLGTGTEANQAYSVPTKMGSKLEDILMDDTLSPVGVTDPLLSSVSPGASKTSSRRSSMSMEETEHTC
“carboxy-terminal FLAG-tagged HLF protein expressed in HEK293 cells from pCI (from UniProt Q16534 1-295)”: the luciferase activity (firefly/renilla) in a reporter assay using BCL2 gene promoter, HEK293 cells, against cells transfected only with the MITF-M gene expression plasmid amounted to 1.8 fold.

“CLOCK expressed in HEK293 cells from the pCI mammalian cell expression vector (from UniProt O15516 1-846)” displayed a luciferase activity (firefly/renilla) in a reporter assay using BCL2 gene promoter, HEK293 cells, against cells transfected only with the MITF-M gene expression plasmid of 1.5 fold.

Take “carboxy-terminal FLAG-tagged ELK4 protein expressed in HEK293 cells from pCI (from UniProt P28324 1-372)”: the luciferase activity (firefly/renilla) in a reporter assay using BCL2 gene promoter, HEK293 cells, against cells transfected only with the MITF-M gene expression plasmid is 1.4 fold.

The values are drawn from patent US20070259805A1.
